Measured values taken from article PMC6888877, “Deconstructing and repurposing the light-regulated interplay between Arabidopsis phytochromes and interacting factors” (Communications Biology, 2019).

B1: AtPIF3 (1-100)-EYFP, P3.100 (domain or fragment, Arabidopsis thaliana, UniProt O80536 1-100, looked up)
chain: MPLFELFRLTKAKLESAQDRNPSPPVDEVVELVWENGQISTQSQSSRSRNIPPPQANSSRAREIGNGSKTTMVDEIPMSVPSLMTGLSQDDDFVPWLNHH
notes: A. thaliana PIF3, residues 1-100; His6-SUMO only on the pET-19b construct that was purified; the pET-28c construct used in lysate has the same AtPIF part, linker and EYFP; also called P3.100-EYFP; source: E. coli BL21(DE3): in crude lysate (pET-28c), and purified (pET-19b; IMAC, SENP2 cleavage, second IMAC, optional anion exchange); not shown: His6-SUMO, N-terminal, cleaved
B2: P3.A19-EYFP (domain or fragment)
chain: MVDEVVELVWENGQISTQSQ
B3: P3 (AtPIF3 1-100 without the N-terminal region preceding APB.A)-EYFP (domain or fragment)
chain: MVDEVVELVWENGQISTQSQSSRSRNIPPPQANSSRAREIGNGSKTTMVDEIPMSVPSLMTGLSQDDDFVPWLNHH
B4: P3.As-EYFP (domain or fragment)
chain: MVDEVVELVWENGQISTQSQSSRSR
B5: P6 (AtPIF6 1-100 without the N-terminal region preceding APB.A)-EYFP (domain or fragment)
chain: MDQEYMELVFENGQILAKGQRSNVSLHNQRTKSIMDLYEAEYNEDFMKSIIHGGGGAITNLGDTQVVPQSHVAAAHETNMLESNKHVD
B6: P3.AA-EYFP (domain or fragment)
chain: MVDEVVELVWENGQISTQSQSSRSRNIPPPQANSSRAREIGNGSKTTMVDEIPMSVPSLVDEVVELVWENGQISTQSQSSRSRFVPWLNHH
B7: AtPIF6 (1-100)-EYFP, P6.100 (domain or fragment, Arabidopsis thaliana, UniProt Q8L5W7 1-100, looked up)
chain: MMFLPTDYCCRLSDQEYMELVFENGQILAKGQRSNVSLHNQRTKSIMDLYEAEYNEDFMKSIIHGGGGAITNLGDTQVVPQSHVAAAHETNMLESNKHVD
notes: A. thaliana PIF6, residues 1-100; His6-SUMO only on the pET-19b construct that was purified; the pET-28c construct used in lysate has the same AtPIF part, linker and EYFP; also called P6.100-EYFP; source: E. coli BL21(DE3): in crude lysate (pET-28c), and purified (pET-19b; IMAC, SENP2 cleavage, second IMAC, optional anion exchange); not shown: His6-SUMO, N-terminal, cleaved
B8: P3.fus-EYFP (domain or fragment)
chain: MVDEVVELVWENGQISTQSQSSRSRMTGLSQDDDFVPWLNHH
B9: P6.As-EYFP (domain or fragment)
chain: MDQEYMELVFENGQILAKGQRSN
B10: P3.A-EYFP (domain or fragment)
chain: MVDEVVELVWENGQISTQSQSSRSRNIPPPQANSSRAREIGN
B11: P6.AA-EYFP (domain or fragment)
chain: MDQEYMELVFENGQILAKGQRSNVSLHNQRTKSIMDLYEAEYNEDFMKSIIHGGGGDQEYMELVFENGQILAKGQRSNTNMLESNKHVD
B12: P6.A19-EYFP (domain or fragment)
chain: MDQEYMELVFENGQILAKGQ
B13: P3.AAfus-EYFP (domain or fragment)
chain: MVDEVVELVWENGQISTQSQSSRSRVDEVVELVWENGQISTQSQSSRSRFVPWLNHH
B14: P6.fus-EYFP (domain or fragment)
chain: MDQEYMELVFENGQILAKGQRSNAITNLGDTQVVPQSHVAAAHETNMLESNKHVD
B15: P6.AAfus-EYFP (domain or fragment)
chain: MDQEYMELVFENGQILAKGQRSNDQEYMELVFENGQILAKGQRSNTNMLESNKHVD
B16: P6.A-EYFP (domain or fragment)
chain: MDQEYMELVFENGQILAKGQRSNVSLHNQRTKSIMDLYEA

The binders below were run against T1, Arabidopsis thaliana phytochrome B photosensory core module (AtPhyB PCM) (Arabidopsis thaliana, UniProt P14713 1-651, covalently incorporated bilin chromophore (PCB; co-expressed Synechocystis sp. heme oxygenase 1 and pcyA)) (assay: fluorescence polarisation; anisotropy of EYFP; 20 nM AtPIF-EYFP constant, AtPhyB PCM 0-10 µM titrated, red light (640 nm), Pfr state; KD corrected for the Pfr fraction (about 0.56); 20 mM HEPES/HCl pH 7.3, 10 mM NaCl, 100 µg/mL BSA; single-site isotherm). Conditions: both partners purified.
T1 construct: A. thaliana phytochrome B, photosensory core module (PAS-GAF-PHY with N-terminal extension), residues 1-651; Pr state (far-red light or dark) and Pfr state (red light; Pfr/Pr about 0.56/0.44) are told apart by the assays; In the cell experiments other constructs were used (PCM-VP16; PCM 1-650 with CAAX); source: E. coli BL21(DE3), plasmid pDG282, purified (Ni-NTA IMAC, anion exchange)
T1 sequence (looked up): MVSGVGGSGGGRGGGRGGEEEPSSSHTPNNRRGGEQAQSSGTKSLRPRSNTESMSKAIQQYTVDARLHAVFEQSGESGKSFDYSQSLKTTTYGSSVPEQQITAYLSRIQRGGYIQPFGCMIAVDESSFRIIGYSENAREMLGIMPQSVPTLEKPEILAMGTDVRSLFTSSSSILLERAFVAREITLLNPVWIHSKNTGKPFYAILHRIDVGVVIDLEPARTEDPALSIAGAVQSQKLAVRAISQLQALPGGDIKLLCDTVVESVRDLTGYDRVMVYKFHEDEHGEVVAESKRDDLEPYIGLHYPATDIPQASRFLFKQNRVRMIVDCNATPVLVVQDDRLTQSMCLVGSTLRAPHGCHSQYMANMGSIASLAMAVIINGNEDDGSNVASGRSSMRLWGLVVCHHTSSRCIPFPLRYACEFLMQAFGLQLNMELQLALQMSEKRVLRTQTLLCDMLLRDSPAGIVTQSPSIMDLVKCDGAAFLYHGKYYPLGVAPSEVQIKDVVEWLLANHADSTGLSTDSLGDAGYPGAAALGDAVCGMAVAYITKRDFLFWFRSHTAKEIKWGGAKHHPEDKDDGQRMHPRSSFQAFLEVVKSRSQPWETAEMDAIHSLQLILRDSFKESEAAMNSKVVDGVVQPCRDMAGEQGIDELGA

Going from B1 to B2, the Kd rises from 200 ± 70 nM to over 1000 nM.

Going from B3 to B4, the Kd rises from 220 ± 40 nM to 680 ± 60 nM (3.1-fold).

Compared with B5, B6 is 37-fold higher in Kd: 10 ± 7 nM for the first, 370 ± 40 nM for the second. The first binds more tightly here.

Going from B7 to B8, the Kd rises from 10 ± 8 nM to 270 ± 60 nM (27-fold).

Compared with B9, B10 is 3.2-fold lower in Kd: 710 ± 80 nM for the first, 220 ± 40 nM for the second. The second binds more tightly here.

Going from B11 to B12, the Kd rises from 360 ± 40 nM to over 2000 nM. The first binds more tightly here.

B13 and B14 are within error of each other in Kd: 230 ± 50 nM for the first, 200 ± 90 nM for the second.

B15 and B16 are within error of each other in Kd: 230 ± 30 nM for the first, 280 ± 100 nM for the second.

Target: the molecule itself
Experiment: SEC; AtPIF-EYFP variants or EYFP alone, 10 µM, not illuminated; Superdex 200 Increase 10/300 GL; 67 mM sodium phosphate pH 8.0, 200 mM NaCl
Conditions: not given

B1 and B3 are the same in “stoichiometry N” value: 2 for the first, 2 for the second.

B6 and B7 are the same in “stoichiometry N” value: 2 for the first, 2 for the second.

B11 and B14 are the same in “stoichiometry N” value: 2 for the first, 2 for the second.

What follows are binders tested against T1, Arabidopsis thaliana phytochrome B … (assay: fluorescence polarisation; anisotropy of EYFP; 20 nM AtPIF-EYFP constant, AtPhyB PCM 0-10 µM titrated, far-red light (750 nm), Pr state; 20 mM HEPES/HCl pH 7.3, 10 mM NaCl, 100 µg/mL BSA; single-site isotherm). Conditions: both partners purified.

B1 and B3 cannot be ordered by Kd: over 2000 nM for the first, over 10000 nM for the second.

B4 and B6 cannot be ordered by Kd: over 10000 nM for the first, over 3000 nM for the second.

B8 and B9 cannot be ordered by Kd: over 10000 nM for the first, over 10000 nM for the second.

B10 and B11 cannot be ordered by Kd: over 10000 nM for the first, over 2000 nM for the second.

B13 and B14 cannot be ordered by Kd: over 10000 nM for the first, over 10000 nM for the second.

B15 and B16 cannot be ordered by Kd: over 10000 nM for the first, over 2000 nM for the second.

Target: B10
Experiment: SEC; AtPIF-EYFP variants or EYFP alone, 10 µM, not illuminated; Superdex 200 Increase 10/300 GL; 67 mM sodium phosphate pH 8.0, 200 mM NaCl
Conditions: not given

B10 gave a stoichiometry N of 2.
